Data taken from doi:10.1101/2020.02.09.940833.

How the values were obtained:
SAR1A (human) = SAR1A (human) (UniProt Q9NR31); experiment: liposome flotation
SAR1B>A-helix (human) = SAR1B>A-helix (human) (UniProt Q9Y6B6); experiment: liposome flotation

Chain of SEC23A (Q15436 whole entry): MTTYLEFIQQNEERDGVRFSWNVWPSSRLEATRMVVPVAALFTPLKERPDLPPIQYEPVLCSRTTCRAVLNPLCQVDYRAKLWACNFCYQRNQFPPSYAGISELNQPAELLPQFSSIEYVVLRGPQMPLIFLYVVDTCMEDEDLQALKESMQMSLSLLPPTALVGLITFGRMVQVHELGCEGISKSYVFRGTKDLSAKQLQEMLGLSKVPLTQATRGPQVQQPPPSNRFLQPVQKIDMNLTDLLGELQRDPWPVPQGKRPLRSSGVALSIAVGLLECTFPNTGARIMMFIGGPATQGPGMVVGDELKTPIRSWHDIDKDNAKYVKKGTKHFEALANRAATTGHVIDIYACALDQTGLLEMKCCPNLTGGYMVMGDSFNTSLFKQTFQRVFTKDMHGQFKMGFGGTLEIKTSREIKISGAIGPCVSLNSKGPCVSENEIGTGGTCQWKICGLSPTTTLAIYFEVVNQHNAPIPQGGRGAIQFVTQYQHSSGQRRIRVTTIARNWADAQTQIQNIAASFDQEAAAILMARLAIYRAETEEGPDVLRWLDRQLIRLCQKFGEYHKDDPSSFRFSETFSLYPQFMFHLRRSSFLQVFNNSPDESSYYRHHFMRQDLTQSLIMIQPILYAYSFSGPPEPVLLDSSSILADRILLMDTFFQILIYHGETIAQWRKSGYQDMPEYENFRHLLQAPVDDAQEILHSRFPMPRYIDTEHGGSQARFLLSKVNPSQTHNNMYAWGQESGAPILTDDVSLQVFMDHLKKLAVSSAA
Chain of SAR1A (human) (Q9NR31 whole entry): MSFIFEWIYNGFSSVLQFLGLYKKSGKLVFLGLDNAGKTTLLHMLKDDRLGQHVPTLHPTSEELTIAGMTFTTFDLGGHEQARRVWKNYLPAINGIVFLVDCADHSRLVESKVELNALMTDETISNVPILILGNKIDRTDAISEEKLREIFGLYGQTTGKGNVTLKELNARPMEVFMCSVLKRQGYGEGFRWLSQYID

Substance	fold recruitment relative to SAR1B (SAR1A (human))	fold reduction of binding (reference as read: SAR1A>B-helix) (SAR1B>A-helix (human))
GTPase activating fragment of SEC31A (from UniProt O94979 1-1220) (domain or fragment)	2 fold	
SEC23A (from UniProt Q15436 1-765) (natural protein)		2 fold
